Test results taken from US20170066831A1 (Janssen / Centocor, published 2017).
Residue numbers refer to the chain shown, from its start. Blank lines part the entries; values can stand above or below the binder they belong to.

Key:
[1] = molecular target: T1, human ST2L, full length, on cells (human, UniProt Q01638 19-556); assay: cell-based or functional assay
T1 sequence: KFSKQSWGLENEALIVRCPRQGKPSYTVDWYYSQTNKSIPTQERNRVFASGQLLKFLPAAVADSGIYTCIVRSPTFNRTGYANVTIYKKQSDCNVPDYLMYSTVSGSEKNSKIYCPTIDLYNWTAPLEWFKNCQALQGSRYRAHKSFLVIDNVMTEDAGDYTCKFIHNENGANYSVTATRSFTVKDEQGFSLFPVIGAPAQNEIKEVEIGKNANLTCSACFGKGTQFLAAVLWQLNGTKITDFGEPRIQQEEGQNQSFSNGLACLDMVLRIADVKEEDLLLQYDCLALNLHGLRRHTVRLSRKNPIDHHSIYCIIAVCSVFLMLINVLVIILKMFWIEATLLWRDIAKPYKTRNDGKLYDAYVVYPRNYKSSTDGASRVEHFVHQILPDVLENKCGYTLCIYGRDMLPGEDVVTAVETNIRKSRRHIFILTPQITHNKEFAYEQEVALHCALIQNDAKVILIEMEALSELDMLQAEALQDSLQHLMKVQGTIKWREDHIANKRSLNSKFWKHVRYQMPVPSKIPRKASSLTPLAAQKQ

[2] = molecular target: T2, human ST2L extracellular domain with C-terminal His6 tag (human, UniProt Q01638 19-328); assay: RLB ELISA: biotinylated IL-33 on coated huST2L-ECD, antibody titrated
T2 construct: also called huST2L-ECD; ST2L-ECD
T2 sequence: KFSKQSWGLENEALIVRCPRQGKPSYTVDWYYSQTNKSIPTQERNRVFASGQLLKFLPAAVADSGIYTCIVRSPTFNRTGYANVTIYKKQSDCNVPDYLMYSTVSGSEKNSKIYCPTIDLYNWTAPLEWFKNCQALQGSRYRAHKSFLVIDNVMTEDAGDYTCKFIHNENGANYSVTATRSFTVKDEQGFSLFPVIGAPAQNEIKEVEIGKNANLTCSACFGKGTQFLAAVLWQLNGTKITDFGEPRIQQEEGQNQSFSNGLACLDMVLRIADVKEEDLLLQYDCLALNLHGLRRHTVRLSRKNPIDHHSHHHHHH
Method: 96-well plate was coated with 50 μl of 4 μg/ml human ST2L-ECD (amino acids 19-328 of SEQ ID NO: 1) or 2 μg/ml cyno ST2L-ECD (amino acids 19-321 of SEQ ID NO: 2) having C-terminal His₆ tag in bicarbonate buffer at 4° C. for 16 hrs. All subsequent steps were performed at room temperature. Plate was blocked with 200 μl blocking buffer, and was washed 3 times with 300 μl of wash buffer containing PBS+0.05% Tween. 30 μl of various dilutions of anti-ST2L mAbs were added to the wells and incubated for 1 hour. For human receptor-ligand binding assay 20 μl of biotinylated human IL-33 (residues 112-270 of SEQ ID NO: 3) was added at 100 ng/ml final concentration and incubated for 30 minutes. For cyno receptor-ligand binding assay 20 μl of biotinylated cyno IL-33 (residues 112-269 of SEQ ID NO: 4) was added at 200 ng/ml final concentration and incubated for 30 minutes. The plate was washed 3 times with 300 μl of wash buffer. 50 μl of 0.2 μg/ml Streptavidin-HRP (Jackson Immunoresearch) was added and incubated for 30 min. The plate was washed 3 times with 300 μl of wash buffer containing PBS+0.05% Tween. 50 μl of TMB substrate (EMD Biosciences) was added to each well. Reaction was stopped by the addition of 100 μl of 0.2N Sulfuric Acid. OD450 were measured using Envision plate reader (Perkin Elmer).

[3] = molecular target: T3, cynomolgus (Macaca fascicularis) ST2L extracellular domain with C-terminal His6 tag (Macaca fascicularis (cynomolgus), UniProt Q01638 19-321 (human entry)); assay: SPR, mAb captured, ST2L-ECD in solution
T3 construct: also called cyno ST2L-ECD; cynoST2L-ECD
T3 chain: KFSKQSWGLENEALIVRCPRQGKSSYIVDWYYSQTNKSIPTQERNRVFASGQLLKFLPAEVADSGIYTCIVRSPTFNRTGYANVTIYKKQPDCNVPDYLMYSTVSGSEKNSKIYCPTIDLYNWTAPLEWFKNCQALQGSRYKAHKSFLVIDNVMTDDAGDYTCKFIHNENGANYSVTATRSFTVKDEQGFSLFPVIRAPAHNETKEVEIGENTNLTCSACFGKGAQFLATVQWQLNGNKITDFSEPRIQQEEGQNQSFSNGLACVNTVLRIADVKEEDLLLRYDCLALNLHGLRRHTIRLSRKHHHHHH

[4] = molecular target: T2, human ST2L extracellular domain with …; assay: SPR, mAb captured, ST2L-ECD in solution

B1: STLM103 (antibody, V domains shown)
VH: EVQLLESGGGLVQPGGSLRLSCAASGFTFSFYDMFWVRQAPGKGLEWVSSIRGEGGRTDYADSVKGRFTISRDNSKNTLYLQMNSLRAEDTAVYYCARDPWSTEGSFFVLDYWGQGTLVTVSS
VL: EIVLTQSPATLSLSPGERATLSCRASQSVDDDLAWYQQKPGQAPRLLIYDASNRATGIPARFSGSGSGTDFTLTISSLEPEDFAVYYCQQYIGAPITFGQGTKVEIK
notes: frameworks VH3-23 / Vk-L6
RGA IC50 [1]: 1.92 µg/mL
IC50 [2]: 0.47 µg/mL
Kd [3]: 0.031 nM
koff [3]: 0.000202 s⁻¹
kon [3]: 6.42e+06 M⁻¹ s⁻¹
Kd [4]: 0.041 nM
koff [4]: 0.000163 s⁻¹
kon [4]: 3.97e+06 M⁻¹ s⁻¹

B2: STLM211 (antibody, V domains shown)
VH: B1 VH with F31G, D33A, F35I, S50Y, R52E, R57E, D59Y
VL: EIVLTQSPATLSLSPGERATLSCRASQSVDDDLAWYQQKPGQAPRLLIYDASNRATGIPARFSGSGSGTDFTLTISSLEPEDFAVYYCQQYNDAITFGQGTKVEIK
notes: frameworks VH3-23 / Vk-L6
RGA IC50 [1]: 2.52 µg/mL
IC50 [2]: 0.28 µg/mL
Kd [3]: 0.014 nM
koff [3]: 0.00139 s⁻¹
kon [3]: 1e+08 M⁻¹ s⁻¹
Kd [4]: 0.029 nM
koff [4]: 0.000483 s⁻¹
kon [4]: 1.7e+07 M⁻¹ s⁻¹

B3: STLM215 (antibody, V domains shown)
VH: B1 VH with F31S, S50A, R52A, D59Y
VL: B1 VL
notes: frameworks VH3-23 / Vk-L6
RGA IC50 [1]: 1.3 µg/mL
IC50 [2]: 0.29 µg/mL
Kd [3]: 0.01 nM
koff [3]: 0.000369 s⁻¹
kon [3]: 3.54e+07 M⁻¹ s⁻¹
Kd [4]: 0.025 nM
koff [4]: 0.000172 s⁻¹
kon [4]: 6.91e+06 M⁻¹ s⁻¹

B7: STLM219 (antibody, V domains shown)
VH: B1 VH with F31G, S50D, R52G, R57S, D59N
VL: B1 VL
notes: frameworks VH3-23 / Vk-L6
RGA IC50 [1]: 3.16 µg/mL
IC50 [2]: 0.29 µg/mL
Kd [3]: 0.022 nM
koff [3]: 0.00023 s⁻¹
kon [3]: 1.07e+07 M⁻¹ s⁻¹
Kd [4]: 0.027 nM
koff [4]: 0.000201 s⁻¹
kon [4]: 7.54e+06 M⁻¹ s⁻¹

B8: STLM207 (antibody, V domains shown)
VH: B1 VH with F31S, F35I, S50T, R57T, D59A
VL: B1 VL with G93T, I96L
notes: frameworks VH3-23 / Vk-L6
RGA IC50 [1]: 2.3 µg/mL
IC50 [2]: 0.36 µg/mL
Kd [3]: 0.021 nM
koff [3]: 0.00207 s⁻¹
kon [3]: 1e+08 M⁻¹ s⁻¹
Kd [4]: 0.048 nM
koff [4]: 0.000395 s⁻¹
kon [4]: 8.33e+06 M⁻¹ s⁻¹

These reach a lower Kd [3]. Values come first.

RGA IC50 [1]: 0.49 µg/mL
IC50 [2]: 0.34 µg/mL
Kd [3]: 0.008 nM
koff [3]: 0.000124 s⁻¹
kon [3]: 1.64e+07 M⁻¹ s⁻¹
Kd [4]: 0.014 nM
koff [4]: 0.000108 s⁻¹
kon [4]: 7.54e+06 M⁻¹ s⁻¹
B5: STLM213 (antibody, V domains shown)
VH: B1 VH with F35I, S50T, R57D, D59N
VL: B1 VL with G93D, I96L
notes: frameworks VH3-23 / Vk-L6

RGA IC50 [1]: 1.25 µg/mL
IC50 [2]: 0.28 µg/mL
Kd [3]: 0.005 nM
koff [3]: 0.000519 s⁻¹
kon [3]: 1e+08 M⁻¹ s⁻¹
Kd [4]: 0.015 nM
koff [4]: 0.000208 s⁻¹
kon [4]: 1.37e+07 M⁻¹ s⁻¹
B6: STLM123 (antibody, V domains shown)
VH: B1 VH with F31D, D33A, S50A, R52E, R57E, D59N
VL: B1 VL with G93T, I96L
notes: frameworks VH3-23 / Vk-L6

RGA IC50 [1]: 1.86 µg/mL
IC50 [2]: 0.3 µg/mL
Kd [3]: 0.003 nM
koff [3]: 0.000264 s⁻¹
kon [3]: 7.89e+07 M⁻¹ s⁻¹
Kd [4]: 0.016 nM
koff [4]: 0.000158 s⁻¹
kon [4]: 9.63e+06 M⁻¹ s⁻¹
B4: STLM216 (antibody, V domains shown)
VH: B1 VH with F31S, S50D, R52K, R57A, D59N
VL: B1 VL
notes: frameworks VH3-23 / Vk-L6
